B1: G001_gp1_V10_VRC01c_2021-0099 (antibody, V domains shown)
VH: QVQLVQSGAEVKKPGASVKVSCKASGNTFTDYYMYWVRQAPGQGLEWMGWINPNSGGTNYAQKFQGRVTMTRDTSISTAYMELSRLRSDDTAVYYCAGRHYDDSSGYKAFQHWGQGTLVTVSS
VL: DIQMTQSPSTLSASVGDRVTITCRASQSFSSWLAWYQQKPGKAPKLLIYKASSLESGVPSRFSGSGSGTEFTLTISSLQPDDVATYYCQQYETFGQGTKVEIK
B2: G001_gp1_V10_VRC01c_2021-0111 (antibody, V domains shown)
VH: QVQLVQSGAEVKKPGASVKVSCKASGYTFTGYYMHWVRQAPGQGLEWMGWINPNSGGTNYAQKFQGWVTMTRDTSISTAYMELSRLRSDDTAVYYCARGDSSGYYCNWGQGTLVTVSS
VL: B1 VL with F29I, V83F, E92T, Q96G
B3: G001_gp1_V10_VRC01c_2021-0105 (antibody, V domains shown)
VH: QVQLVQSGAEVKKPGASVKVSCKASGYTFTGYYIHWVRQAPGQGLEWMGWINPNSGGTNYARQFEGWVTMTRDTSISTAYMELRRLRSDDTAMYYCATEDAVVAGTTFDYWGQGTLVTVSS
VL: B1 VL with F29M, E55Q, V83F, E92N, T93S, Q96G
B4: G001_gp1_V10_VRC01c_2021-0123 (antibody, V domains shown)
VH: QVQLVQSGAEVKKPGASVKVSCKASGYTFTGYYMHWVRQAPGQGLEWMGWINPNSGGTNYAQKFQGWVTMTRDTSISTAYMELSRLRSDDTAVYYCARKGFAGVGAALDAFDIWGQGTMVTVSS
VL: B1 VL with F29I, V83F, E92N
B5: G001_gp1_V10_VRC01c_2021-0117 (antibody, V domains shown)
VH: QVQLVQSGAEVKKPGASVKVSCKASGYTFTGYYMHWVRQAPGQGLEWMGWINPNSGGTNYAQKFQGWVTMTRDTSISTAYMEVSRLTSDDTAVYYCARGEDNWYSFNYWGQGTLVTVSS
VL: EIVMTQSPATLSVSPGERATLSCRASQSVSSKLAWYQQKPGQAPRLLIYGTSTRATGIPARFSGSGSGTEFTLTISSLQSEDFAVYYCQLYETFGQGTKVEIK
B6: G001_gp1_V10_VRC01c_2021-0107 (antibody, V domains shown)
VH: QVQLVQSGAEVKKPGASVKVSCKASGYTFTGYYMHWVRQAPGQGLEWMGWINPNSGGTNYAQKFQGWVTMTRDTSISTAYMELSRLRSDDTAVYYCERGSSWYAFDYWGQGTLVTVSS
VL: DIQMTQSPSSLSASVGDRVTITCRASQSISSYLNWYQQKPGKAPKLLIYAASSLQSGVPSRFSGSGSGTDFTLTISSLQPEDFATYYCQHQGTFGQGTKVEIK
B7: G001_gp1_V10_VRC01c_2021-0124 (antibody, V domains shown)
VH: QVQLVQSGAEVKKPGASVKVSCKASGYTFTGYYMHWVRQAPGQGLEWMGWINPNSGGTNYARKFQGWVTMTRDTSIGTAYMELSRLRSDDTAVYYCAKSRSRDDTWLFDYWGQGTLVTVSS
VL: DIVMTQSPDSLAVSLGERATINCKSSRSVLYSSNNKNFLTWYQQKPGQPPKLLIYWASTRESGVPERFSGSGSGTDFTLTISSLQAEDVAVYYCQQYESFGQGTKLEIK
B8: G001_gp1_V10_VRC01c_2021-0104 (antibody, V domains shown)
VH: QVHLVQSGAEVKKPGASVKVSCKASGYSFTDYYIYWVRQAPGQGLEWMGWINPNSGGTNYAQKFQAWVTMTRDTSISTAYMELNRLTSDDTAVYYCARRTMPTTEFDSWGQGTLVTVSS
VL: EIVLTQSPGTLSLSPGERVTLSCRASQSLSNNYLAWYQQKPGQAPRLLIYGVSNRATGIPDRFRGSGSGTDFTLTISRLEPEDCAVYYCQQYVSFGQGTKLEIK
B9: G001_gp1_V10_VRC01c_2021-0114 (antibody, V domains shown)
VH: QVQLVQSGAEVKKPGASVKVSCKASGYTFTGYNIHWVRQDPGQGLEWMGWINPNSGGTNYAQKFQDWVTMTRDMSISTAYMELSRLRSDDTAIYYCAAVAGRRGRWAFDIWGQGTMVTVSS
VL: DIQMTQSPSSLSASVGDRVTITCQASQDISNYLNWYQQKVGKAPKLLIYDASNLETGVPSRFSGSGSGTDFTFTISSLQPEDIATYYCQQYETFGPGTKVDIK
B10: G001_gp1_V10_VRC01c_2021-0103 (antibody, V domains shown)
VH: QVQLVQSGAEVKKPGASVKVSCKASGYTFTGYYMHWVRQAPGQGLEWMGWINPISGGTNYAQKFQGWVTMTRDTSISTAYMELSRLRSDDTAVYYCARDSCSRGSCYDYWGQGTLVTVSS
VL: QSALTQPRSVSGSPGQSVTISCTGTSSDVGGYNYVSWYQQHPGKAPKLMIYDVSKRPSGVPDRFSGSKSGNTASLTISGLQAEDEADYYCCSYEVFGGGTKLTVL
B11: G001_gp1_V10_VRC01c_2021-0119 (antibody, V domains shown)
VH: QVQLVQSGAEVKRPGASVMVSCKASGYTFTNYYMHWVRQAPGQGLEWMGWINPSSGGTNYAQKFQDWVTMTRDTSISTVYMELNRLRFDDTAVYFCARAQSSGWFLDFWGQGTLVTVSS
VL: DIQMTQSPSSLSASVGDRVTITCQASQGFTKYLNWYQQKLGKAPKLLIYDASNLETGVPSRFSGSASGTDFTFTISSLQPEDIATYYCQQYDLFGGGTKVEIR
B12: G001_gp1_V10_VRC01c_2021-0116 (antibody, V domains shown)
VH: QVQLVQSGAEVKKPGASVKVSCKASGYTFTDYYIHWVRQAPGQGLEWMGWINPNSGGTNYAQKFQGRVTMTRDTSITTAYMELSRLRSDDTAVYYCARICSGGSCYRTTSTFDYWGQGTLVTVSS
VL: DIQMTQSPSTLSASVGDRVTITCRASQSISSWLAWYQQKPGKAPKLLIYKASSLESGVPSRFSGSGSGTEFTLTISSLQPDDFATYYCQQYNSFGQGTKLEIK
B13: G001_gp1_V10_VRC01c_2021-0120 (antibody, V domains shown)
VH: QVQLVQSGAEVKKPGASVKVSCKASGYTFSGYYMHWVRQAPGQGLEWMGWINPNSGGTNYAQRFQDWVTMTRDTSISTAYMELSRLRSDDTAVYYCARAEYSSAWCFDYWGQGTLVTVSS
VL: DIQMTQSPSSLSASVGDRVTITCQASQDSSKSLNWYQQKPGKAPKLLIYDVSNLETGVPSRFSGSGSGRDFTFTISSLQAEDTATYYCQQYDIFGPGTKVHIK
B14: G001_gp1_V10_VRC01c_2021-0100 (antibody, V domains shown)
VH: PVQLVQSGAEVKKPGASVKVSCKASGYTFTGYYIHWVRQAPGQGLEWMGWINPNSGGTNYAQKFQGRVTMTRDTSVSTAYMELSRLRSDDTAVYYCARRLAAASGVFGVRFDPWGQGTLVTVSS
VL: DIQMTQSPSSLSASVGDRITITCQASQDISNYLNWYQQRPGKAPKLLIYDASNLETGVPSRFSGSGSGTDFTFTISSLQPEDIATYYCQQYDFFGPGTKVDIK
B15: G001_gp1_V10_VRC01c_2021-0122 (antibody, V domains shown)
VH: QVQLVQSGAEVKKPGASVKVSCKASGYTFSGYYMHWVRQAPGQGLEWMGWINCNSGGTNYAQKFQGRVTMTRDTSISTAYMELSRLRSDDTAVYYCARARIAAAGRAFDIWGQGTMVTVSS
VL: B14 VL with I19V, R39K, D92G, F93T, P96Q, V100L, D101E
B16: G001_gp1_V10_VRC01c_2021-0109 (antibody, V domains shown)
VH: QVQLVQSGAEVKKPGASVKVSCKASGYSFTGYYMHWVRQAPGQGLEWMGWMNPNSGGTNYAQKFQGWVTMTRDTSISTAYMELSRLRSDDSAVYYCARARSGYSSGWYWAYWGQGTLVTVSS
VL: B14 VL with I19V, R39K, D92E, P96G, D101E
B17: G001_gp1_V10_VRC01c_2021-0098 (antibody, V domains shown)
VH: QVQLVQSGAEVKKPGASVKVSCKASGNTFSGYYMHWVRQAPGQGLEWMGWINPNSGGTNYAQKFQGWVTMTRDTSISTAYMELSRLRSDDTAVYYCARGGRSAYYSWWFDPWGQGTLVTVSS
VL: EIVLTQSPGTLSLSPGERATLSCRASQSVSSSYLAWYQQKPGQAPRLLIYGAFSRATGIPDRFSGSGSGTDFTLTISRLEPEDFAVYYCQQWETFGQGTKVEIK
B18: G001_gp1_V10_VRC01c_2021-0112 (antibody, V domains shown)
VH: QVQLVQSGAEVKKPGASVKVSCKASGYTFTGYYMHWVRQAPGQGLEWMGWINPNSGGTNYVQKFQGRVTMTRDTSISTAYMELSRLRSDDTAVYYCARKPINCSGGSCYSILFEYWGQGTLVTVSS
VL: B17 VL with R24W, S30N, S32R, L34V, F53S, W92Y, K100R, V101L
B19: G001_gp1_V10_VRC01c_2021-0108 (antibody, V domains shown)
VH: QVQLVQSGAEVKKPGASVKISCKASGYTFSGYYMHWVRQAPGQGLEWMGWINPNSGGTNYAQKFQDWVTMTRDTSISTVYMELSRLRSDDTAVYYCARDWCSGDTCYSGPTFDYWGQGTLVTVSS
VL: B17 VL with I2S, S32N, F53S, W92Y
B20: G001_gp1_V10_VRC01c_2021-0101 (antibody, V domains shown)
VH: QVHLVQSGAEVKKPGASVKVSCKASGYTFTGYSMHWVRQAPGQGLEWMGWINPNSGGTNYAQKFQGRVTMTRDTSINTGYMELSRLRSDDTAVYYCARPHSNWYFDLWGRGTLVTVSS
VL: B17 VL with S32N, F53S, W92Y
B21: G001_gp1_V10_VRC01c_2021-0110 (antibody, V domains shown)
VH: QVQLVQSGAEVKKPGASVRVSCKASGYTFTGYYMHWVRQAPGQGLEWMGWTNPNSGGTNYAQKFQGWVTMTRDTSISTAYMELSRLRSDDTAVYYCARGEAYSTRYFDLWGRGTLVTVSS
VL: B17 VL with G51D, A52T, F53S, W92Y
B22: G001_gp1_V10_VRC01c_2021-0115 (antibody, V domains shown)
VH: QVQLVQSGAEVKKPGASVKVSCNASGYTFTGYYMHWVRQAPGQGLEWMGWINPNSGGTNFAQKFQGWVTMTRDTSISTAYMELSRLRSDDTAVYYCARSIVGATIFVYWGQGTLVTVSS
VL: B17 VL with V29L, F53S, W92Y, E93G, T94A, Q97P, E102D
B23: G001_gp1_V10_VRC01c_2021-0106 (antibody, V domains shown)
VH: QVQLVQSGAEVKKPGASVKVSCKASGYTFTDYYIHWVRQAPGQGLEWMGWLNPNSGGTNYAQKFQDWVTMTRDTSINTAYMELSRLRSDDTAVYYCASSLSGYGSFSFDYWGQGTLVTVSS
VL: B17 VL with V29G, S32R, Y33S, F53S, S77N, F84S, W92Y, E93D, T94S, V101L
B24: G001_gp1_V10_VRC01c_2021-0121 (antibody, V domains shown)
VH: QVQLVQSGAEVKKPGASVKVSCKASGYSFTGYYIHWVRQVPGQGLEWMGWINPNSGGTNYAQEFQDWVTMTRDTSISTAYMELSRLRSDDTAVYYCARHKPSSRFYFDYWGQGTLVTVSS
VL: DIQMTQSPSTLSASVGDRVTITCRASQSISSWLAWYQQKPGKAPKFLLMYDASSLESGVPSRFSGSGSGTEFTLTISSLQPDDFATYYCQQYETFGQGTKVEIK

The values below come from PMC12377726 (Proceedings of the National Academy of Sciences of the …, 2025).

Changes are numbered by the printed parent chain.

This assay has as its target eOD-GT8 (engineered outer domain germline-targeting version 8), monomer (HIV-1 gp120 engineered outer domain, …).
As for B1, the binding result was “binds”.

Consider B2, for which the binding result was “binds”.

For B3, the binding result is reported as “binds”.

Regarding B4, the binding result was “binds”.

For the molecule B5, the binding result is “binds”.

As for B6, the binding result is “binds”.

On to B7, for which the binding result is “binds”.

With B8, the binding result is “binds”.

B9: the binding result was “binds”.

For the molecule B10, the binding result was “binds”.

Turning to B11, the binding result is recorded as “binds”.

Take B12: the binding result is given as “binds”.

B13: the binding result is on record as “binds”.

B14: the binding result is given as “binds”.

Take B15: the binding result was “binds”.

As to B16, the binding result is listed as “binds”.

B17: the binding result is “binds”.

On to B18, for which the binding result was “binds”.

For B19, the binding result is “binds”.

In the case of B20, the binding result is given as “binds”.

In the case of B21, the binding result is recorded as “binds”.

As to B22, the binding result is on record as “binds”.

On to B23, for which the binding result is listed as “binds”.

Turning to B24, the binding result is recorded as “binds”.
